Measurements as given in patent US6555522B1, “Peptides and other small molecules derived from regions of interacting proteins and uses thereof” (Mount Sinai School of Medicine of the City of New York, priority 1998, dated 2003).
“Also recorded” adds a separate entry of the source. Ends that are not written are not given here.

Columns and labels:
[1] = molecular target: T1, phospholipase C-β2 (PLC-β2) (Homo sapiens, UniProt Q00722); assay: PLC assay, [3H]PIP2 hydrolysis by recombinant PLC-β2; type: biochemical; conditions: for stimulation of PLC-β2 activity by peptide itself (in words): basal, no Gβγ unless stated, short peptides at 100 μM; for affinity of PLC-β2 stimulation compared with parent or comparator peptide (in words) / maximal stimulation / efficacy on PLC-β2 (in words): concentration-effect curves; for effect on Gβγ stimulation of PLC-β2 (in words): Gβγ 100 nM
T1 construct: made in house; host or cells: High 5 insect cells (baculovirus); cytosolic fraction used, not purified
T1 sequence (Q00722 whole entry): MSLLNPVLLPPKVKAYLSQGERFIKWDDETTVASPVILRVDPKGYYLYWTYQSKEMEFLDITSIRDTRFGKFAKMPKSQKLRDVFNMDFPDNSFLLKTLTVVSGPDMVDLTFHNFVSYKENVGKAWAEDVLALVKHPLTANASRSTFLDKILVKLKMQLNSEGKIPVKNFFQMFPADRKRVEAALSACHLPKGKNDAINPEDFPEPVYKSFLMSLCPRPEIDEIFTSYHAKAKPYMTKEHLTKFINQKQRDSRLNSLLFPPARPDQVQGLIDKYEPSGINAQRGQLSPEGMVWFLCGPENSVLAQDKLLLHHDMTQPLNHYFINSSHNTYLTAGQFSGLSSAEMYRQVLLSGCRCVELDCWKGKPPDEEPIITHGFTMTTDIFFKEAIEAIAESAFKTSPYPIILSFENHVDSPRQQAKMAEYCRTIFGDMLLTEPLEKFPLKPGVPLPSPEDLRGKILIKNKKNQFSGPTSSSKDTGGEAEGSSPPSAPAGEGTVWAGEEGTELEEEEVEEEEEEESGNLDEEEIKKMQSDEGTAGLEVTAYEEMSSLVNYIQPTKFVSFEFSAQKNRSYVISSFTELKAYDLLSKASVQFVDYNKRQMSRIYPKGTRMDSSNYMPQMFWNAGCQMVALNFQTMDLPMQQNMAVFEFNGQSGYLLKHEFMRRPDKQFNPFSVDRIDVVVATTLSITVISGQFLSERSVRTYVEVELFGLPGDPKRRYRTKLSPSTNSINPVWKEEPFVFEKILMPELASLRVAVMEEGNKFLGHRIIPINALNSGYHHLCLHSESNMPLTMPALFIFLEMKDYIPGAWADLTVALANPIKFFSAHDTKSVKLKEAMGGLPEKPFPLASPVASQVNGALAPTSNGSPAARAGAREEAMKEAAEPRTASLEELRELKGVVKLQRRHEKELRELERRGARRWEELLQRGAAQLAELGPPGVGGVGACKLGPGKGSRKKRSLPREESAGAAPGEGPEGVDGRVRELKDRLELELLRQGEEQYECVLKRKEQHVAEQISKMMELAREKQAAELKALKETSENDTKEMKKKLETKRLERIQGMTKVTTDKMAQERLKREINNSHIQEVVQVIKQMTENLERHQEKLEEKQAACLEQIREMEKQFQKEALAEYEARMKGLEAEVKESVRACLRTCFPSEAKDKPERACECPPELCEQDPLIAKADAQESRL
Experimental: Recombinant PLC-β2 was expressed in High 5 cells by infection with recombinant baculovirus. Three to four days after infection, the cells were lysed by par bombing to 600 psi. The lysate was then centrifuged, and the cytosolic fraction was collected. Approximately 10-15 μg of cytosolic fraction was used per 100 μl reaction volume. Phospholipid substrate is a mixture of [3H]PIP2 and unlabeled phospholipids. Unlabeled phospholipids, from Sigma (P-6023), are crude phospholipids from bovine brain. The total diphosphoinositide and triphosphoinositide content is 20-40%. The remainder is a mixture of phosphotidylinositol and phosphotidylserine. Phospholipids are sonicated in 10 mM Hepes pH 7.0 to form micelles. A total of 0.01 μCi of [3H]PIP2, corresponding to approximately 7000 cpm, and 5 μg of unlabeled mixed phospholipids are used per reaction.
The PLC assay was performed as previously described (De Vivo, 1994, Meth. Enzymol. 238, 131). Briefly, substrate, PLC-β2, peptide, and Gβγ subunits are mixed on ice in a 100 μl volume buffer containing 10 mM Hepes pH 7.0, 1 mM DTT, 100 mM KCl, 10 mM NaCl, 2 mM EGTA, 1 mM EDTA, and 1 mM MgCl2. Reactions are started by the addition of 25 μl 5 mM CaCl2 and incubated at 32 degrees C. for 15 minutes. Reactions are stopped by the addition of 1 ml CMH (chloroform:methanol:H2O=100:100:1 by volume) and 250 μl 10 mM EDTA. After extraction, 400 μl aqueous phase is counted using a Beckman scintillation counter. All experiments were repeated at least thrice with very similar results. For concentration-effect curves, typical experiments are shown.

adenylyl cyclase 2 (AC2) = molecular target: T2, adenylyl cyclase 2 (AC2) (Rattus norvegicus, UniProt P26769); assay: Adenylyl cyclase assay, recombinant AC2 in Sf9 cell membranes; type: biochemical; conditions: αs* 2 nM plus Gβγ 50 nM; TTN at 100 μM
T2 construct: made in house; host or cells: Sf9 cells (baculovirus); membranes used
T2 sequence (P26769 whole entry): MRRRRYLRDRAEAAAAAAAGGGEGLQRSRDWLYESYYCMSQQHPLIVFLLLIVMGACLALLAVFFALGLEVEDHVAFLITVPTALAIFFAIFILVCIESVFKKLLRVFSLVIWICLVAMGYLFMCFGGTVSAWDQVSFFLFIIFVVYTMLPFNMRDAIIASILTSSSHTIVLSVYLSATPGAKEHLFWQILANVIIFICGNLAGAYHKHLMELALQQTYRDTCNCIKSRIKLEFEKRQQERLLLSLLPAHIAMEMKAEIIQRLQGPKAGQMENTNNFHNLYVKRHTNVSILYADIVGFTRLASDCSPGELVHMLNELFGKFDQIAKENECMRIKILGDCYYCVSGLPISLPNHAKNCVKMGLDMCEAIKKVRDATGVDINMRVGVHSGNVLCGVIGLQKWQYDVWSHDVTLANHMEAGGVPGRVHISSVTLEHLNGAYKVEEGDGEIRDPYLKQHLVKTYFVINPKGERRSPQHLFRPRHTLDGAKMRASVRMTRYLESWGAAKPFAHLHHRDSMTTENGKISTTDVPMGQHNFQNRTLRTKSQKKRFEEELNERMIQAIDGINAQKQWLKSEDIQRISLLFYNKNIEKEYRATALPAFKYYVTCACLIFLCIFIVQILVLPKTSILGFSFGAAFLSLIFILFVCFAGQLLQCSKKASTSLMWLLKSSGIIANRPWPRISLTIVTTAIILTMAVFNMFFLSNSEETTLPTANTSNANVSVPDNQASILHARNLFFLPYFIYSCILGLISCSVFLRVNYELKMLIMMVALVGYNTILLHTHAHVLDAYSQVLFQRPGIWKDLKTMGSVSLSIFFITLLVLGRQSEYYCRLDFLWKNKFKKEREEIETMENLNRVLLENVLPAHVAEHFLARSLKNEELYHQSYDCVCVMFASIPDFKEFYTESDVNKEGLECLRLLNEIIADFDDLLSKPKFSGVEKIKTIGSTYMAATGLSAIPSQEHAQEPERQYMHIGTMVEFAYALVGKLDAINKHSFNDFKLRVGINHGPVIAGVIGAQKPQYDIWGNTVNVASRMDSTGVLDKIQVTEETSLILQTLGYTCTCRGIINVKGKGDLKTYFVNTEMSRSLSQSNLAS
Source text: (§1) Expression of G-Protein Subunits And Adenylyl Cyclases. Gβγ was purified from bovine brain (Dingus et al., 1994, Meth. Enzymol. 237, 457-471). Q227L-Gαs was expressed in rabbit reticulocyte lysates. AC2 was expressed in Sf9 cells by infection with recombinant baculovirus (Jacobowitz and Iyengar, 1994, Proc. Natl. Acad. Sci. U.S.A. 91, 10630-10634). AC2 assays have been described (Chen et al., 1995, Science 268, 1166-1169). Bovine AC1 (Jacobowitz et al., 1993, J. Biol. Chem. 268, 3829-3832) was epitope tagged at the N terminus with the FLAG epitope (Jacobowitz and Iyengar, 1994, Proc. Natl. Acad. Sci. U.S.A. 91, 10630-10634) and expressed in Sf9 cells by baculovirus infection.
Adenylyl Cyclase Assays. AC2 assays have been described (Chen et al., 1995, Science 268, 1166-1169). When required the peptides were mixed with adenylyl cyclase containing membranes and held on ice for 10 min prior to assays. Approximately 1-4 μg of AC2 Sf9 cell membranes per assay tube was used. All assays contained a mixture of protease inhibitors. The final concentration of each inhibitor was leupeptin at 3.2 μg/ml, aprotinin at 2 μg/ml, phenanthroline at 1.0 mM, and phenylmethylsulfonyl fluoride at 1.0 mM. To study Gβγ inhibition, AC1-containing Sf9 cell membranes (1-4 μg per assay tube) was used. […]

adenylyl cyclase 1 (AC1) = molecular target: T3, adenylyl cyclase 1 (AC1) (Bos taurus, UniProt P19754); assay: Adenylyl cyclase assay, recombinant AC1 in Sf9 cell membranes; type: biochemical, bovine; conditions: for inhibition of Ca2+/CaM-stimulated AC1 activity by peptide alone (in words): CaM 100 nM; for blockade of Gβγ inhibition of Ca2+/CaM-stimulated AC1: CaM 100 nM plus Gβγ 30 nM
T3 construct: made in house; host or cells: Sf9 cells (baculovirus); membranes used
T3 sequence (P19754 whole entry): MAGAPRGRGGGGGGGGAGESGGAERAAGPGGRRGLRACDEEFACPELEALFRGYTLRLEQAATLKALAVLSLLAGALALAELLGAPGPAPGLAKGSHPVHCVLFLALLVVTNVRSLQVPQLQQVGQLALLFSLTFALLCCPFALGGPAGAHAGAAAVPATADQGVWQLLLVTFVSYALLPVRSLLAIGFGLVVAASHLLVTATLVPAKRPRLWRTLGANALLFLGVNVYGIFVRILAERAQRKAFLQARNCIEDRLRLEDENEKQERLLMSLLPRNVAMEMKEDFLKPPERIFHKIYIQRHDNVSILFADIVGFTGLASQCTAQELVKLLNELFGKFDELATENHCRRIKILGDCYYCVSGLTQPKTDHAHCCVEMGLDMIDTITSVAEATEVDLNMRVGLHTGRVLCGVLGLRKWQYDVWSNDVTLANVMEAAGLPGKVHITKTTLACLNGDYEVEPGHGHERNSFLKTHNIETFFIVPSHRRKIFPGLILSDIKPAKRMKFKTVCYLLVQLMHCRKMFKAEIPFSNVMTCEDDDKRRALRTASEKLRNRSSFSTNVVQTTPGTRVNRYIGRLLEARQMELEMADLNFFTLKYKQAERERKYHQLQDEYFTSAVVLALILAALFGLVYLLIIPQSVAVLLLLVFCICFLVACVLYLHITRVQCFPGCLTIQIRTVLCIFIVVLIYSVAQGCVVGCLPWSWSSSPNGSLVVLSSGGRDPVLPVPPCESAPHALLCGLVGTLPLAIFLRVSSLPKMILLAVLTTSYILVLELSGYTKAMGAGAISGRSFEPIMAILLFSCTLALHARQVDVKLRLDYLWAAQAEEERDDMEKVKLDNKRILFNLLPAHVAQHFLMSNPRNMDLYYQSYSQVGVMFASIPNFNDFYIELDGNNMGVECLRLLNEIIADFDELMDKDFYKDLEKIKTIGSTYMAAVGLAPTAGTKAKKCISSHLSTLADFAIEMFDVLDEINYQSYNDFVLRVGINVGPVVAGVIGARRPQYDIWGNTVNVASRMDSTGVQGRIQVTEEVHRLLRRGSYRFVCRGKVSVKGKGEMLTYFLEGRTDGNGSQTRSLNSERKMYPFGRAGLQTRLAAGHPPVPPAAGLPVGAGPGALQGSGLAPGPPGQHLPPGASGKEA
Source text: as §1
Adenylyl Cyclase Assays. AC2 assays have been described (Chen et al., 1995, Science 268, 1166-1169). When required the peptides were mixed with adenylyl cyclase containing membranes and held on ice for 10 min prior to assays. Approximately 1-4 μg of AC2 Sf9 cell membranes per assay tube was used. All assays contained a mixture of protease inhibitors. The final concentration of each inhibitor was leupeptin at 3.2 μg/ml, aprotinin at 2 μg/ml, phenanthroline at 1.0 mM, and phenylmethylsulfonyl fluoride at 1.0 mM. To study Gβγ inhibition, AC1-containing Sf9 cell membranes (1-4 μg per assay tube) was used. In these assays, in addition to the other standard reagents, the assay mixture contained either 1 mM EGTA or 50 μM CaCl2 plus 100 nM calmodulin (CaM). All experiments were repeated two or more times with qualitatively similar results. Typical experiments are shown. Values are mean±SD of triplicate determinations.

PLC-β2 = molecular target: T4, PLC-β2 (Homo sapiens, UniProt Q00722); assay: Fluorescent resonance energy transfer binding of DABMI-labeled peptide to Cascade Blue-labeled PLC-β2; conditions: FRET
T4 construct: made in house; host or cells: Sf9 cells; purified as in Runnel et al. 1996
T4 sequence (Q00722 whole entry): as the sequence (Q00722 whole entry) above
Experimental: For fluorescent resonance energy transfer experiments, recombinant PLC-β2 was expressed in Sf9 cells and purified as described (Runnel et al., 1996, Biochem. 35, 16824) and labeled with the amine-reactive probe, Cascade Blue acetyl azide (Molecular Probes, Eugene Oreg.) by raising the pH to 8.0 and adding a 4-fold excess of probe from a freshly prepared concentrated DMF solution. The reaction was kept on ice for 30 minutes before extensive dialysis in a solution comprising 20 mM Hepes, 0.16 M NaCl, 1 mM DTT, pH 7.2 to remove excess probe. Peptides were labeled with DABMI (4-dimethyl-5aminophenylazophenyl-4′-maleimeide) using an equimolar amount of dye in the absence of reducing agents. The reaction was allowed to proceed for 30 minutes at room temperature before quenching with 5 mM DTT. The final labeling ratios, as determined by absorption, were 1:1 for CB-PLC-β2 and 0.8 for the two DABMI-peptides. Fluorescence spectra were taken on an ISS-PCL (ISS Champaign, Ill.) photon counting spectrofluorometer using a 3×3 mm cuvette and exciting at 380 nm and scanning from 400-560 nm.

FLLT: unrelated peptide encoding region 660-688 of adenylyl cyclase 6, same overall charge as Gβ86-105 (KYSRKVDPRFGAYVACALLVFCFICFIQL; UniProt O43306 660-688, looked up, fragment) [reference compound]
stimulation of PLC-β2 activity by peptide itself (in words) [1]: no measurable effects

Gβ89-101: thirteen amino acid peptide encoding Gβ residues 89-101 (SEQ ID NO:7) (KVHAIPLRSSWVM; listed as Homo sapiens)
stimulation of PLC-β2 activity by peptide itself (in words) [1]: did stimulate

Gβ96-98: three amino acid peptide encoding Gβ residues 96-98 (RSS)
stimulation of PLC-β2 activity by peptide itself (in words) [1]: did not stimulate

Gβ96-101: six amino acid peptide encoding Gβ residues 96-101 (SEQ ID NO:8) (RSSWVM; listed as Homo sapiens)
stimulation of PLC-β2 activity by peptide itself (in words) [1]: did stimulate
affinity of PLC-β2 stimulation compared with parent or comparator peptide (in words) [1]: considerably lower affinity

H91A: Gβ86-105 peptide with H91A substitution (TTNKVAAIPLRSSWVMTCAY)
affinity of PLC-β2 stimulation compared with parent or comparator peptide (in words) [1]: decreased the affinity
maximal stimulation / efficacy on PLC-β2 (in words) [1]: did not affect maximal stimulation

K89A, H91A, and R96A triple substituted peptide: Gβ86-105 peptide with K89, H91 and R96 substituted simultaneously (TTNAVAAIPLASSWVMTCAY; UniProt P62873 86-105, looked up, variant K89A H91A R96A)
effect on Gβγ stimulation of PLC-β2 (in words) [1]: did not affect
stimulation of PLC-β2 activity by peptide itself (in words) [1]: did not stimulate

K89A: Gβ86-105 peptide with K89A substitution (TTNAVHAIPLRSSWVMTCAY)
affinity of PLC-β2 stimulation compared with parent or comparator peptide (in words) [1]: decreased the affinity
maximal stimulation / efficacy on PLC-β2 (in words) [1]: did not affect maximal stimulation

R96A: Gβ86-105 peptide with R96A substitution (TTNKVHAIPLASSWVMTCAY)
affinity of PLC-β2 stimulation compared with parent or comparator peptide (in words) [1]: decreased the affinity; also recorded: large shift in affinity
maximal stimulation / efficacy on PLC-β2 (in words) [1]: did not affect maximal stimulation

S97,98R Gβ86-105 peptide: Gβ86-105 peptide with both serines 97 and 98 substituted with arginine (TTNKVHAIPLRRRWVMTCAY)
increase in affinity of PLC-β2 stimulation versus Gβ86-105 peptide ([1]; substituted Gβ86-105 peptides): five-fold increase

S97, 98C: Gβ86-105 peptide with serines 97 and 98 substituted with cysteine (TTNKVHAIPLRCCWVMTCAY)
affinity of PLC-β2 stimulation compared with parent or comparator peptide (in words) [1]: greatly reduced affinity

S97, 98D Gβ96-101: six amino acid Gβ96-101 peptide with serines 97 and 98 substituted with Asp (RDDWVM)
stimulation of PLC-β2 activity by peptide itself (in words) [1]: did not stimulate

S97, 98D: Gβ86-105 peptide with serines 97 and 98 substituted (D per FIG. 7C legend; text says asparagine) (TTNKVHAIPLRDDWVMTCAY; not fully specified)
stimulation of PLC-β2 activity by peptide itself (in words) [1]: inactive

S97R substituted peptide: six amino acid Gβ96-101 peptide with arginine at position 97 (SEQ ID NO:10) (RRSWVM; listed as Homo sapiens)
affinity of PLC-β2 stimulation compared with parent or comparator peptide (in words) [1]: increase affinity; also recorded: higher affinity

S98R Gβ96-101: six amino acid Gβ96-101 peptide with arginine substituted at position 98 (RSRWVM; UniProt P62873 96-101, looked up, variant S98R)
affinity of PLC-β2 stimulation compared with parent or comparator peptide (in words) [1]: increase affinity

m-GGL: Gβ115-135 peptide with Tyr-124 converted to Val (GGLDNICSIVNLKTREGNVRV)
inhibition of Gβγ-stimulated AC2 activity (adenylyl cyclase 2 (AC2)): less effective
inhibition of Ca2+/CaM-stimulated AC1 activity by peptide alone (in words) (adenylyl cyclase 1 (AC1)): did not inhibit the AC1 activity as extensively
blockade of Gβγ inhibition of Ca2+/CaM-stimulated AC1 (adenylyl cyclase 1 (AC1)): no effect
effect on Gβγ stimulation of PLC-β2 (in words) [1]: inactive

m-TTN: Gβ86-105 peptide with Met-101 substituted by Asn (TTNKVHAIPLRSSWVNTCAY)
inhibition of Gβγ-stimulated AC2 activity (adenylyl cyclase 2 (AC2)): much less efficacious
inhibition of Ca2+/CaM-stimulated AC1 activity by peptide alone (in words) (adenylyl cyclase 1 (AC1)): greatly reduced capacity to inhibit
blockade of Gβγ inhibition of Ca2+/CaM-stimulated AC1 (adenylyl cyclase 1 (AC1)): did not affect
stimulation of PLC-β2 activity by peptide itself (in words) [1]: not capable of activating
binding to PLC-β2 (in words) (PLC-β2): did not display measurable binding
